Legend:
BVU2420 = target: T1, BVU2420 (Phocaeicola vulgatus, UniProt A6L315); test: DTNB-coupled thioesterase assay, […] nm; format: biochemical; details: pH 7.5, 25 °C, 50 mM HEPES, 0.15 M KCl, 1 mM DTNB
T1 sequence (A6L315 1-135): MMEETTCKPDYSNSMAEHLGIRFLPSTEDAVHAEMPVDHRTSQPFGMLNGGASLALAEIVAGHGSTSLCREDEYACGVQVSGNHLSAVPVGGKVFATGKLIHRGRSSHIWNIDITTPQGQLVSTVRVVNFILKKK

BF1314 = target: T2, BF1314 (Bacteroides fragilis, UniProt Q5LFS7); test: DTNB-coupled thioesterase assay, […] nm; format: biochemical; details: pH 7.5, 25 °C, 50 mM HEPES, 0.15 M KCl, 1 mM DTNB
T2 sequence (Q5LFS7 1-410): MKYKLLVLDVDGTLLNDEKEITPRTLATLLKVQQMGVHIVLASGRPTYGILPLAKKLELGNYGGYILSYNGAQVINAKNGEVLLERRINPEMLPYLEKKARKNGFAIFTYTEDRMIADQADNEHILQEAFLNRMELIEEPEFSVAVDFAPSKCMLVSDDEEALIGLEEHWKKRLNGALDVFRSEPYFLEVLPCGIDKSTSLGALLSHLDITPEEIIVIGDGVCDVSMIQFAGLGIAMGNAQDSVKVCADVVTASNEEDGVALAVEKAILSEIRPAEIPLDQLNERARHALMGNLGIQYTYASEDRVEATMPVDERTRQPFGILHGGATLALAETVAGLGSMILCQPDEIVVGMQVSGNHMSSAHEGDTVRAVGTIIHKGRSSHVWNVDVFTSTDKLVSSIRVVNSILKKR

PG1653 = target: T3, PG1653 (Porphyromonas gingivalis, UniProt Q7MU91); test: DTNB-coupled thioesterase assay, […] nm; format: biochemical; details: pH 7.5, 25 °C, 50 mM HEPES, 0.15 M KCl, 1 mM DTNB
T3 sequence (Q7MU91 1-407): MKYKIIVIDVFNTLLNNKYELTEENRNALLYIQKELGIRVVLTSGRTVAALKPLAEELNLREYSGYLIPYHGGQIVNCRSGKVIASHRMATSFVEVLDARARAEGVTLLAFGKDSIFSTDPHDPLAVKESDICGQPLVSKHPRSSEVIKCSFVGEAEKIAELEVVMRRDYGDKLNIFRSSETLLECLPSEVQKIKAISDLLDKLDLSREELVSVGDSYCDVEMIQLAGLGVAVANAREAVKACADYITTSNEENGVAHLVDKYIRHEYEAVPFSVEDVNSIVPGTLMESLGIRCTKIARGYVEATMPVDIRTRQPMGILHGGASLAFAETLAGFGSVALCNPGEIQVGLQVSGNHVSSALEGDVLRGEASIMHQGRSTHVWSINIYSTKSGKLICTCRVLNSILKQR

purified protein [1] = substrate: CC(C)(COP(=O)(O)OP(=O)(O)OC[C@H]1O[C@@H](n2cnc3c(N)ncnc32)[C@H](O)[C@@H]1OP(=O)(O)O)[C@@H](O)C(=O)NCCC(=O)NCCSC(=O)Cc1cccc(O)c1; test: purified protein; format: biochemical, Porphyromonas gingivalis; details: pH 7.5, 25 °C, 50 mM HEPES, 0.15 M KCl, 1 mM DTNB
purified protein [2] = substrate: CC(C)(COP(=O)(O)OP(=O)(O)OC[C@H]1O[C@@H](n2cnc3c(N)ncnc32)[C@H](O)[C@@H]1OP(=O)(O)O)[C@@H](O)C(=O)NCCC(=O)NCCSC(=O)c1cc(O)c2ccccc2c1O; test: purified protein; format: biochemical, Porphyromonas gingivalis; details: pH 7.5, 25 °C, 50 mM HEPES, 0.15 M KCl, 1 mM DTNB
purified protein [3] = substrate: CC(C)(COP(=O)(O)OP(=O)(O)OC[C@H]1O[C@@H](n2cnc3c(N)ncnc32)[C@H](O)[C@@H]1OP(=O)(O)O)[C@@H](O)C(=O)NCCC(=O)NCCSC(=O)c1ccc(O)cc1; test: purified protein; format: biochemical, Porphyromonas gingivalis; details: pH 7.5, 25 °C, 50 mM HEPES, 0.15 M KCl, 1 mM DTNB
purified protein [4] = substrate: CC(C)(COP(=O)(O)OP(=O)(O)OC[C@H]1O[C@@H](n2cnc3c(N)ncnc32)[C@H](O)[C@@H]1OP(=O)(O)O)[C@@H](O)C(=O)NCCC(=O)NCCSC(=O)c1ccccc1; test: purified protein; format: biochemical, Porphyromonas gingivalis; details: pH 7.5, 25 °C, 50 mM HEPES, 0.15 M KCl, 1 mM DTNB
purified protein [5] = substrate: CC(C)(COP(=O)(O)OP(=O)(O)OC[C@H]1O[C@@H](n2cnc3c(N)ncnc32)[C@H](O)[C@@H]1OP(=O)(O)O)[C@@H](O)C(=O)NCCC(=O)NCCSC(=O)Cc1cccc(O)c1; test: purified protein; format: biochemical, Bacteroides fragilis; details: pH 7.5, 25 °C, 50 mM HEPES, 0.15 M KCl, 1 mM DTNB
purified protein [6] = substrate: CC(C)(COP(=O)(O)OP(=O)(O)OC[C@H]1O[C@@H](n2cnc3c(N)ncnc32)[C@H](O)[C@@H]1OP(=O)(O)O)[C@@H](O)C(=O)NCCC(=O)NCCSC(=O)c1cc(O)c2ccccc2c1O; test: purified protein; format: biochemical, Bacteroides fragilis; details: pH 7.5, 25 °C, 50 mM HEPES, 0.15 M KCl, 1 mM DTNB
purified protein [7] = substrate: CC(C)(COP(=O)(O)OP(=O)(O)OC[C@H]1O[C@@H](n2cnc3c(N)ncnc32)[C@H](O)[C@@H]1OP(=O)(O)O)[C@@H](O)C(=O)NCCC(=O)NCCSC(=O)c1ccc(O)cc1; test: purified protein; format: biochemical, Bacteroides fragilis; details: pH 7.5, 25 °C, 50 mM HEPES, 0.15 M KCl, 1 mM DTNB
purified protein [8] = substrate: CC(C)(COP(=O)(O)OP(=O)(O)OC[C@H]1O[C@@H](n2cnc3c(N)ncnc32)[C@H](O)[C@@H]1OP(=O)(O)O)[C@@H](O)C(=O)NCCC(=O)NCCSC(=O)c1ccccc1; test: purified protein; format: biochemical, Bacteroides fragilis; details: pH 7.5, 25 °C, 50 mM HEPES, 0.15 M KCl, 1 mM DTNB
purified protein [9] = substrate: NC(=O)OP(=O)(O)O; test: purified protein; format: biochemical, Bacteroides fragilis; details: pH 7.5, 25 °C, 1 mM MgCl2 (table; methods say 2 mM)
purified protein [10] = substrate: CC(C)(COP(=O)(O)OP(=O)(O)OC[C@H]1O[C@@H](n2cnc3c(N)ncnc32)[C@H](O)[C@@H]1OP(=O)(O)O)[C@@H](O)C(=O)NCCC(=O)NCCSC(=O)Cc1cccc(O)c1; test: purified protein; format: biochemical, Phocaeicola vulgatus; details: pH 7.5, 25 °C, 50 mM HEPES, 0.15 M KCl, 1 mM DTNB
purified protein [11] = substrate: CC(C)(COP(=O)(O)OP(=O)(O)OC[C@H]1O[C@@H](n2cnc3c(N)ncnc32)[C@H](O)[C@@H]1OP(=O)(O)O)[C@@H](O)C(=O)NCCC(=O)NCCSC(=O)c1cc(O)c2ccccc2c1O; test: purified protein; format: biochemical, Phocaeicola vulgatus; details: pH 7.5, 25 °C, 50 mM HEPES, 0.15 M KCl, 1 mM DTNB
purified protein [12] = substrate: CC(C)(COP(=O)(O)OP(=O)(O)OC[C@H]1O[C@@H](n2cnc3c(N)ncnc32)[C@H](O)[C@@H]1OP(=O)(O)O)[C@@H](O)C(=O)NCCC(=O)NCCSC(=O)c1ccc(O)cc1; test: purified protein; format: biochemical, Phocaeicola vulgatus; details: pH 7.5, 25 °C, 50 mM HEPES, 0.15 M KCl, 1 mM DTNB
purified protein [13] = substrate: CC(C)(COP(=O)(O)OP(=O)(O)OC[C@H]1O[C@@H](n2cnc3c(N)ncnc32)[C@H](O)[C@@H]1OP(=O)(O)O)[C@@H](O)C(=O)NCCC(=O)NCCSC(=O)c1ccccc1; test: purified protein; format: biochemical, Phocaeicola vulgatus; details: pH 7.5, 25 °C, 50 mM HEPES, 0.15 M KCl, 1 mM DTNB
purified protein [14] = substrate: CC(=O)OP(=O)(O)O; test: purified protein; details: pH 7.5, 25 °C, 1 mM MgCl2 (table; methods say 2 mM)
purified protein [15] = substrate: NC(=O)OP(=O)(O)O; test: purified protein; details: pH 7.5, 25 °C, 1 mM MgCl2 (table; methods say 2 mM)
purified protein [16] = substrate: O=P(O)(O)NP(=O)(O)O; test: purified protein; details: pH 7.5, 25 °C, 1 mM MgCl2 (table; methods say 2 mM)
purified protein [17] = substrate: O=P(O)(O)OC[C@H](O)CO; test: purified protein; details: pH 7.5, 25 °C, 1 mM MgCl2 (table; methods say 2 mM)

With napthoyl-CoA the Km (BVU2420) was 180 µM, the Km (BF1314) was 230 µM and the Km (PG1653) was 170 µM.

B1: PG1653 (Porphyromonas gingivalis W83) (protein)
chain: MKYKIIVIDVFNTLLNNKYELTEENRNALLYIQKELGIRVVLTSGRTVAALKPLAEELNLREYSGYLIPYHGGQIVNCRSGKVIASHRMATSFVEVLDARARAEGVTLLAFGKDSIFSTDPHDPLAVKESDICGQPLVSKHPRSSEVIKCSFVGEAEKIAELEVVMRRDYGDKLNIFRSSETLLECLPSEVQKIKAISDLLDKLDLSREELVSVGDSYCDVEMIQLAGLGVAVANAREAVKACADYITTSNEENGVAHLVDKYIRHEYEAVPFSVEDVNSIVPGTLMESLGIRCTKIARGYVEATMPVDIRTRQPMGILHGGASLAFAETLAGFGSVALCNPGEIQVGLQVSGNHVSSALEGDVLRGEASIMHQGRSTHVWSINIYSTKSGKLICTCRVLNSILKQR
B1 was tested, and the Km (purified protein [1]) was “(1.7 ± 0.3) × 10^2 μM”, the kcat (purified protein [1]) was 0.31 ± 0.02 s⁻¹ and the Km (purified protein [2]) was 4.0 ± 0.3 µM. For the same molecule, the kcat (purified protein [2]) was 10 ± 1 s⁻¹, the Km (purified protein [3]) was “(8.0 ± 0.6) × 10^2 μM” and the kcat (purified protein [3]) was 4.6 ± 0.1 s⁻¹. The Km (purified protein [4]) was “(5.8 ± 0.5) × 10^1 μM” and the kcat (purified protein [4]) was 0.03 ± 0.001 s⁻¹.

B2: BF1314 (Bacteroides fragilis NCTC 9343) (protein)
chain: MKYKLLVLDVDGTLLNDEKEITPRTLATLLKVQQMGVHIVLASGRPTYGILPLAKKLELGNYGGYILSYNGAQVINAKNGEVLLERRINPEMLPYLEKKARKNGFAIFTYTEDRMIADQADNEHILQEAFLNRMELIEEPEFSVAVDFAPSKCMLVSDDEEALIGLEEHWKKRLNGALDVFRSEPYFLEVLPCGIDKSTSLGALLSHLDITPEEIIVIGDGVCDVSMIQFAGLGIAMGNAQDSVKVCADVVTASNEEDGVALAVEKAILSEIRPAEIPLDQLNERARHALMGNLGIQYTYASEDRVEATMPVDERTRQPFGILHGGATLALAETVAGLGSMILCQPDEIVVGMQVSGNHMSSAHEGDTVRAVGTIIHKGRSSHVWNVDVFTSTDKLVSSIRVVNSILKKR
With B2 the Km (purified protein [5]) was “(4.6 ± 0.4) × 10^1 μM”, the kcat (purified protein [5]) was 0.19 ± 0.01 s⁻¹ and the Km (purified protein [6]) was 7.0 ± 0.5 µM. The kcat (purified protein [6]) was 12 ± 1 s⁻¹, the Km (purified protein [7]) was “(2.3 ± 0.2) × 10^2 μM” and the kcat (purified protein [7]) was 1.1 ± 0.1 s⁻¹. For the same molecule, the Km (purified protein [8]) was “(8.4 ± 0.8) × 10^1 μM”, the kcat (purified protein [8]) was 0.024 ± 0.002 s⁻¹ and the Km (purified protein [9]) was 440 ± 30 µM. It also gave a kcat (purified protein [9]) of 0.0217 ± 0.00167 s⁻¹ and a kcat/Km (purified protein [9]) of 54 M⁻¹ s⁻¹.

B3: BVU2420 (Phocaeicola vulgatus ATCC 8482) (protein)
chain: MMEETTCKPDYSNSMAEHLGIRFLPSTEDAVHAEMPVDHRTSQPFGMLNGGASLALAEIVAGHGSTSLCREDEYACGVQVSGNHLSAVPVGGKVFATGKLIHRGRSSHIWNIDITTPQGQLVSTVRVVNFILKKK
B3 was tested, and the Km (purified protein [10]) was “(8.1 ± 0.6) × 10^2 μM”, the kcat (purified protein [10]) was 0.034 ± 0.001 s⁻¹ and the Km (purified protein [11]) was “(1.5 ± 0.1) × 10^1 μM”. The kcat (purified protein [11]) was 13 ± 1 s⁻¹, the Km (purified protein [12]) was “(3.3 ± 0.2) × 10^1 μM” and the kcat (purified protein [12]) was 1.2 ± 0.1 s⁻¹. The Km (purified protein [13]) was “(3.1 ± 0.4) × 10^1 μM” and the kcat (purified protein [13]) was 0.028 ± 0.001 s⁻¹.

B4: BF1314-HAD Domain (Bacteroides fragilis NCTC 9343) (protein)
chain: MKYKLLVLDVDGTLLNDEKEITPRTLATLLKVQQMGVHIVLASGRPTYGILPLAKKLELGNYGGYILSYNGAQVINAKNGEVLLERRINPEMLPYLEKKARKNGFAIFTYTEDRMIADQADNEHILQEAFLNRMELIEEPEFSVAVDFAPSKCMLVSDDEEALIGLEEHWKKRLNGALDVFRSEPYFLEVLPCGIDKSTSLGALLSHLDITPEEIIVIGDGVCDVSMIQFAGLGIAMGNAQDSVKVCADVVTASNEEDGVALAVEKAILSEIRPAEIPLDQLNERARHAL
B4 showed a Km (purified protein [14]) of 870 ± 60 µM, a kcat (purified protein [14]) of 0.02 ± 0.00167 s⁻¹ and a kcat/Km (purified protein [14]) of 23 M⁻¹ s⁻¹. The Km (purified protein [15]) was 970 ± 80 µM, the kcat (purified protein [15]) was 0.04167 ± 0.000333 s⁻¹ and the kcat/Km (purified protein [15]) was 42 M⁻¹ s⁻¹. The Km (purified protein [16]) was 7400 ± 500 µM, the kcat (purified protein [16]) was 0.383 ± 0.0167 s⁻¹ and the kcat/Km (purified protein [16]) was 51 M⁻¹ s⁻¹. For the same molecule, the Km (purified protein [17]) was 63 ± 2 µM, the kcat (purified protein [17]) was 0.011 ± 0.001 s⁻¹ and the kcat/Km (purified protein [17]) was 170 M⁻¹ s⁻¹.

From publication PMC3912074 (FEBS letters, 2013)
